From patent publication US20120264815, “REVERSIBLE PLATELET INHIBITION” (DUKE UNIVERSITY, published 2012)

Legend:
[1] = biological target: T1, glycoprotein IIb/IIIa on activated platelets (Homo sapiens, UniProt P08514;P08514;P05106 P08514:32-887,P08514:891-1039,P05106:27-788); assay: filter; apparent Kd on activated platelets, 37 C; conditions: label: 5'-32P
Method: (§1) In order to correlate the real-time data with binding affinity, purified 11D platelets were isolated and the affinity of each round to activated platelets was measured using nitrocellulose-filter partitioning (Wang et al, Biochemistry 32:1899-1904 (1993)). Since purified gpIIb/IIIa were selected, 80,000 gpIIb/IIIa receptors per platelet were assumed (Tcheng, Am. Heart J. 139:S38-45 (2000)) and the theoretical concentration of the protein was calculated.
(§2) Representative clones from each family were subsequently tested for their ability to bind to purified platelets.

[2] = biological target: VWF SPI fragment (V8 protease; C-terminal 455 residues of SPIII) (UniProt P04275 P04275:1674-2128); assay: filter; 37 C, 2 mM CaCl2; conditions: label: 5'-32P
Method: (§3) Affinity constants (Kd values) were determined using double-filter nitrocellulose filter binding assays (Rusconi et al, Thromb. Haemost. 84:841-848 (2000)). All binding studies were performed in either binding buffer E (20 mM HEPES, pH 7.4, 50 mM NaCl, 2 mM CaCl₂, and 0.1% BSA) or binding buffer F (20 mM HEPES, pH 7.4, 150 mM NaCl, 2 mM CaCl₂, and 0.1% BSA) at 37° C. Human purified VWF (factor VIII free) was purchased from Haematologic Technologies Inc. (Essex Junction, VT) and used in the double-filter nitrocellulose filter binding assay to determine the Kd of every other round and individual clones. VWF SPI and VWF SPIII domains were kindly provided by Dr. J. Evan Sadler (Washington University in St. Louis). Briefly, RNA were dephosphorylated using bacterial alkaline phosphatase (Gibco BRL, Gaithberg, Md.) and end-labeled at the 5′ end with T4 polynucleotide kinase (New England Biolabs, Beverly, Mass.) and [γ³²P] ATP (Amersham Pharmacia Biotech, Piscataway, N.J.) (Fitzwater and Polisky, Methods Enzymol. 267:275-301 (1996)). Direct binding was performed by incubating ³²P-RNA with VWF in physiological buffer+1 mg/ml BSA at 37° C. for 5 min. The fraction of the nucleic acid-protein complex which bound to the nitrocellulose membrane was quantified with a posphoimager (Molecular Dynamics, Sunnyvale, Calif.).

[3] = biological target: T2, von Willebrand factor (VWF) (Homo sapiens, UniProt P04275 P04275:764-2813); assay: filter; nitrocellulose filter binding, 37 C, 2 mM CaCl2; conditions: tags: Haematologic Technologies Inc. (factor VIII free); label: 5'-32P
Method: as §3

[4] = biological target: T1, glycoprotein IIb/IIIa on activated …; assay: filter; apparent Kd on activated platelets, poorest binder; conditions: label: 5'-32P
Method: as §1, §2

[5] = biological target: T2, von Willebrand factor (VWF); assay: filter; buffer F, 150 mM NaCl, 2 mM CaCl2, 37 C; Bmax 61%; conditions: tags: Haematologic Technologies Inc. (factor VIII free); label: 5'-32P
Method: Dissociation constants (Kd) of each truncate were determined using double-filter nitrocellulose filter binding assays (Pergolizzi et al, Blood 108:862-869 (2006)). All binding studies were performed in binding buffer F (20 mM HEPES, pH 7.4, 150 mM NaCl, 2 mM CaCl₂, and 0.1% BSA) at 37° C. Human purified VWF (with factor VIII and factor VIII free) was purchased from Haematologic Technologies Inc. (Essex Junction, VT) and used in the double-filter nitrocellulose filter binding assay to determine the Kd of individual clones. Briefly, RNA was dephosphorylated using bacterial alkaline phosphatase (Gibco BRL, Gaithberg, Md.) and end-labeled at the 5′ end with T4 polynucleotide kinase (New England Biolabs, Beverly, Mass.) and [γ³²P] ATP (Amersham Pharmacia Biotech, Piscataway, N.J.). Direct binding was performed by incubating ³²P—RNA with VWF in physiological buffer+1 mg/ml BSA at 37° C. for 5 min. The fraction of the nucleic acid-protein complex which bound to the nitrocellulose membrane was quantified with a phosphoimager (Molecular Dynamics, Sunnyvale, Calif.).

B1: C1 (ssRNA)
RNA: GGGAGGACGAUGCGGUAUAGACCACAGCCUGAGUAUUAACCACCAACCCAGGUACUCAGACGACUCGCUGAGGAUCC
modifications: 2'-F pyrimidines
For B1, the Kd [1] was 6 nM.

B2: VWF R9.14 (ssRNA)
RNA: GGGAGGACGAUGCGGUGGACGAACUGCCCUCAGCUACUUUCAUGUUGCUGACGCACAGACGACUCGCUGAGGAUCCGAGA
modifications: 2'-F pyrimidines
With B2 the binding result [2] was “no binding” and the Kd [3] was 12 nM.

B3: C3 (ssRNA)
RNA: GGGAGGACGAUGCGGUGCCACAUGCCUCAGAUACAGCACGCACCUUCGACCUAAUCAGACGACUCGCUGAGGAUCC
modifications: 2'-F pyrimidines
In the case of B3, the Kd [4] is reported as 62 nM.

B4: 9.14 T10 (ssRNA)
RNA: GGGAGGUGGACGAACUGCCCUCAGCUACUUUCAUGUUGCUGACGCACAGACGACUCGCUG
modifications: 2'-F pyrimidines
Binder B4 has a Kd [5] of 44 nM.
